Two molecules from patent publication US20060172407A1, “Bacterial cell digestion” (priority 2002, published 2006) can be followed below.

The experiment deals with E. coli. Description: Tests with E. coli: expression of the domain 3 of EF-Tu in cells, electron microscope pictures. Type of experiment: cell-based, Escherichia coli. An excerpt:
One especially advantageous procedure of the invention is as follows. The DNA segment of the EF-Tu gene of Escherichia coli that codes for the domain 3 is obtained and by means of molecular-genetic techniques is transferred into E. coli cells and expressed. In addition to this recombinant segment that contains solely the domain 3, but not domains 1 and 2 of EF-Tu, the cells as before have the native EF-Tu gene and can express it. The additionally synthesized domain 3 polypeptides, however, compete with the native EF-Tu proteins around the binding sites for the formation of the protofilaments. If a domain-3 polypeptide instead of a native EF-Tu protein is incorporated as a link, this leads to chain rupture as a result of the absence of the second binding site (the domain 2 is essential for chain formation) on the domain-3 polypeptide. […] As a result of the loss of integrity of the cytoskeleton, the cytoplasmic membrane of the cell loses it suspension. […] In this way, the cell wall that in the living bacteria cell is positioned and supported by the cytoplasmic membrane is destroyed (see FIG. 5). The loss of the cell wall and the cytoplasmic membrane means exposure of the contents of the cell so that the cell is lysed (cf. FIGS. 5 and 6). The cell contents can thus be recovered without further cell digestion.
Tests with E. coli, Electron microscope pictures, negative contrasting • a) Intact bacteria cells, containing their chromosome and in addition an empty vector (plasmid) that was used in continuing tests as a vector for introducing the domain-3 gene segment. These cells therefore represent controls. • b) Cells of a young culture. A plasmid that in expressible form contains the gene segment that codes for the domain 3 of EF-Tu had been introduced into these cells before the start of cultivation, in addition to its own native chromosome (that does contain the gene that codes intact EF-Tu). The effect of the expression of this “truncated” gene can be clearly seen: In addition to some cells that appear intact (they are recognizable as already weakened in their cell coating with a more exact analysis), the picture is determined by cell residues that indicate the original cell form, but have neither a wall nor CM. The wall and the CM have lost their suspension by destabilization of the cytoskeleton. […] The onetime cell form can no longer be detected; the cell residues form unorganized aggregations

The mark [1] stands for this setting: ultrathin section, expressed in addition to the cell's own EF-Tu.

As to “EF-Tu: Full-length bacterial elongation factor EF-Tu introduced by genetic engineering and expressed in addition to the cell's own EF-Tu (control) [reference compound]”, under setting [1], the “state of the cells in electron microscope picture” value is recorded as “the cell is intact”.

B1: domain 3 of EF-Tu: Polypeptide containing solely domain 3 (amino acids 299 to 394) of E. coli EF-Tu, expressed intracellularly from an introduced gene segment (protein)
chain: IKPHTKFESEVYILSKDEGGRHTPFFKGYRPQFYFRTTDVTGTIELPEGVEMVMPGDNIKMVVTLIHPIAMDDGLRFAIREGGRTVGAGVVAKVLG
On to B1, for which the “state of the cells in electron microscope picture” value is, setting by setting: (negative contrasting, cells of a young culture, plasmid expression in addition to native EF-Tu) “The cell contents are exposed”; (negative contrasting, old culture) “End stage of the dissolution of the cells”; under setting [1], “End stage of the dissolution of the cells”.
